Measured values published in patent US6495376 (dated 2002).
Read-outs that look alike come from different tables or passages of the source. Where no end group is shown, it is not given here. [ ]: non-standard residue; d: D form. fluorescein = N-terminal fluorescein label; pT = C[C@@H](OP(=O)(O)O)[C@H](N)C(=O)O; pS = N[C@@H](COP(=O)(O)O)C(=O)O

Assays:
Pin1^Y23A = target: T1, Pin1^Y23A (human, UniProt Q13526 1-163); assay: ELISA
T1 construct: mature; also called Pin1^Y23A mutant

GST [1] = target: T2, GST (UniProt P08515 1-218 = GST); assay: fluorescence anisotropy
T2 construct: Control protein; also called control GST

GST-WW-domain of Pin1 = target: T3, GST-WW-domain of Pin1 (human, UniProt Q13526 1-54); assay: fluorescence anisotropy
T3 construct: range 1-54; also called GST-Pin1 WW-domain; Pin1 WW-domain; not shown: glutathione S-transferase (GST), N-terminal fusion partner

GST [2] = target: T2, GST; assay: fluorescence anisotropy; remark: listed apart in the source

B1: tau peptide KVAVVRTPPKSPS (pT-231), SEQ ID NO: 30 (peptide)
peptide: KVAVVR[pT]PPKSPS
notes: also called pT231 tau peptide (row of Pin1^Y23A)
B1: no binding (Pin1^Y23A).

fluorescein-WFY[pS]PFLE (also called phosphopeptide) [Pintide analogue WFYpSPFLE]: no binding (GST [1]).

fluorescein-IPGTPPPNYD [Pro-Rich peptide IPGTPPPNYD]: no binding (GST-WW-domain of Pin1); no binding (GST [2]).

fluorescein-EQPLTPVTDL [Cdc25 Peptide EQPLTPVTDL (nonphosphorylated)]: no binding (GST [2]).

fluorescein-WFYSPFLE (also called nonphosphorylated peptide) [WFYSPFLE, nonphosphorylated control peptide]: no binding (GST [1]).

fluorescein-EQPL[pT]PVTDL (also called Cdc25C peptide) [Cdc25 Peptide EQPLpTPVTDL]: no binding (GST [2]).
